Where two headings read alike, the source gives them in different places. Square brackets hold non-standard residues; d marks the D form. Peptide text beside a SMILES is read from it. * marks the point of attachment. HYNIC = NNc1ccc(C(=O)*)cn1; AEEA = NCCOCCOCC(=O)O
Assay: In vivo biodistribution study (ex vivo organ counting)
Set-up: species or system mice
Settings: female, mouse, iv, total radioactivity, mean ± SD, n = 3; for tissue to tissue ratio at 0.5 h / tissue to tissue ratio at 1 h / tissue to tissue ratio at 2 h / tissue to tissue ratio at 4 h: athymic nude; for tissue to tissue ratio at 0.5 h: 0.5h after i.v.; for tissue to tissue ratio at 1 h: 1h after i.v.; for tissue to tissue ratio at 2 h: 2h after i.v.; for tissue to tissue ratio at 4 h: 4h after i.v.
Method: All animal experiments were approved by Jilin University Health Science Center Animal Care and Use Committee. Human breast carcinoma cell line MDA-MB-231 with high MT1-MMP expression and human lung adenocarcinomaepithelial cell line A549 with low MT1-MMP expression were cultured in DMEM medium containing 10% (v/v) fetal bovine serum (Invitrogen) supplemented with penicillin (100 μg/mL) and streptomycin (100 μg/mL) at 37°C with 5% CO2. MDA-MB-231 and A549 tumor models were established by subcutaneous injection of 5×10^6 cells into the upper right front flank of female athymic nude mice (Department of Experimental Animal, Peking University Health Science Center). Tumor growth was monitored by caliper measurements three times a week after the tumors are palpable. The mice were used for SPET/CT imaging when the tumor volume reached about 200 mm3 (about 14 days after tumor inoculations). The tumor volume was determined as the formula: V = a × (b^2)/2, where a and b are the length and width of each tumor in mm respectively. During the injection and image acquisition process, the mice were anesthetized with 2.5% isoflurane in oxygen delivered at a flow rate of 1.5 L/min.
Animals were divided into 4 groups (n = 3) for 4 time points with approximately equal distribution of tumor sizes on the day before the study. At 0.5, 1, 2, and 4 h after intravenous administration of [^99mTc]-(HYNIC-AF7P)(tricine)(TPPTS), MDA-MB-231 tumor bearing mice were euthanized. […] The organ uptake was calculated as a percentage of the injected dose per gram of wet tissue (%ID/g).

[1] = tumor and intestine, read-out: Tumor/Intestine ratio
[2] = tumor and pancreas, read-out: Tumor/Pancreas ratio
[3] = tumor/blood, read-out: Tumor/Blood ratio
[4] = tumor/bone, read-out: Tumor/Bone ratio
[5] = tumor/heart, read-out: Tumor/Heart ratio
[6] = tumor/kidney, read-out: Tumor/Kidney ratio
[7] = tumor/liver, read-out: Tumor/Liver ratio
[8] = tumor/lung, read-out: Tumor/Lung ratio
[9] = tumor/muscle, read-out: Tumor/Muscle ratio
[10] = tumor/spleen, read-out: Tumor/Spleen ratio

## CC(C)C[C@H](NC(=O)[C@H](Cc1ccccc1)NC(=O)[C@@H](NC(=O)[C@H](CCCCN)NC(=O)[C@@H](NC(=O)[C@H](CC(N)=O)NC(=O)[C@H](Cc1c[nH]cn1)NC(=O)[C@H](CC(C)C)NC(=O)[C@H](Cc1c[nH]cn1)NC(=O)[C@H](CCCCN)NC(=O)[C@H](Cc1c[nH]c2ccccc12)NC(=O)[C@H](Cc1c[nH]cn1)NC(=O)c1ccc(NN)nc1)[C@@H](C)O)[C@@H](C)O)C(=O)NCCOCCOCC(=O)O [[^99mTc]-(HYNIC-AF7P)(tricine)(TPPTS), metal not drawn] ({HYNIC}-HWKHLHNTKTFL[AEEA]-OH)
[1]
  tissue to tissue ratio at 0.5 h: 1.76 ± 0.1
  tissue to tissue ratio at 1 h: 1.61 ± 0.17
  tissue to tissue ratio at 2 h: 1.44 ± 0.13
  tissue to tissue ratio at 4 h: 0.93 ± 0.12
Tumor and liver, read-out: Tumor/Liver ratio
  tissue to tissue ratio at 4 h: 0.41 ± 0.04
[2]
  tissue to tissue ratio at 0.5 h: 4.4 ± 0.43
  tissue to tissue ratio at 1 h: 4.98 ± 0.16
  tissue to tissue ratio at 2 h: 6.28 ± 0.7
  tissue to tissue ratio at 4 h: 5.67 ± 0.82
[3]
  tissue to tissue ratio at 0.5 h: 9.27 ± 0.28
  tissue to tissue ratio at 1 h: 9.36 ± 0.73
  tissue to tissue ratio at 2 h: 11.1 ± 0.74
  tissue to tissue ratio at 4 h: 5.54 ± 0.55
[4]
  tissue to tissue ratio at 0.5 h: 4.21 ± 0.2
  tissue to tissue ratio at 1 h: 4.5 ± 0.51
  tissue to tissue ratio at 2 h: 5.01 ± 0.38
  tissue to tissue ratio at 4 h: 2.6 ± 0.15
[5]
  tissue to tissue ratio at 0.5 h: 1.49 ± 0.23
  tissue to tissue ratio at 1 h: 1.56 ± 0.26
  tissue to tissue ratio at 2 h: 2.23 ± 0.2
  tissue to tissue ratio at 4 h: 1.66 ± 0.21
[6]
  tissue to tissue ratio at 0.5 h: 0.38 ± 0.01
  tissue to tissue ratio at 1 h: 0.35 ± 0.01
  tissue to tissue ratio at 2 h: 0.45 ± 0.04
  tissue to tissue ratio at 4 h: 0.24 ± 0.02
[7]
  tissue to tissue ratio at 0.5 h: 0.65 ± 0.06
  tissue to tissue ratio at 1 h: 0.67 ± 0.07
  tissue to tissue ratio at 2 h: 0.75 ± 0.05
[8]
  tissue to tissue ratio at 0.5 h: 1.6 ± 0.18
  tissue to tissue ratio at 1 h: 1.81 ± 0.34
  tissue to tissue ratio at 2 h: 2.17 ± 0.14
  tissue to tissue ratio at 4 h: 1.51 ± 0.3
[9]
  tissue to tissue ratio at 0.5 h: 3.77 ± 0.42
  tissue to tissue ratio at 1 h: 3.86 ± 0.75
  tissue to tissue ratio at 2 h: 4.17 ± 0.49
  tissue to tissue ratio at 4 h: 2.02 ± 0.09
[10]
  tissue to tissue ratio at 0.5 h: 3.75 ± 0.46
  tissue to tissue ratio at 1 h: 3.66 ± 0.58
  tissue to tissue ratio at 2 h: 3.94 ± 0.57
tumor, 0.5 h after i.v. administration, MDA-MB-231 xenograft, BALB/c nude mice, read-out: Tumor uptake (biodistribution)
  tissue uptake at 0.5 h: 3.37 ± 0.27 %ID/g
tumor, 1 h after i.v. administration, MDA-MB-231 xenograft, BALB/c nude mice, read-out: Tumor uptake (biodistribution)
  tissue uptake at 1 h: 2.59 ± 0.21 %ID/g
tumor, 2 h after i.v. administration, MDA-MB-231 xenograft, BALB/c nude mice, read-out: Tumor uptake (biodistribution)
  tissue uptake at 2 h: 2.18 ± 0.11 %ID/g
tumor, 4 h after i.v. administration, MDA-MB-231 xenograft, BALB/c nude mice, read-out: Tumor uptake (biodistribution)
  tissue uptake at 4 h: 1.05 ± 0.07 %ID/g

— article PMC4593522, “Development of a Radiolabeled Peptide-Based Probe Targeting MT1-MMP for Breast Cancer Detection” (PLoS ONE, 2015)
